# Measured values reported in patent US20260250404A1 (Genmab, published 2026).
# Substitutions are numbered along the chain they refer to. Names and notes keep the numbering of the source.
# T1: recombinant His-tagged human FcγRIIa, 167-His [H] / H131 variant (human, UniProt P12318 34-218, limits assumed)
# T1 construct: catalogue numbers differ; also called FcγRIIa-H; FcγRIIa-H131
# T1 sequence (looked up): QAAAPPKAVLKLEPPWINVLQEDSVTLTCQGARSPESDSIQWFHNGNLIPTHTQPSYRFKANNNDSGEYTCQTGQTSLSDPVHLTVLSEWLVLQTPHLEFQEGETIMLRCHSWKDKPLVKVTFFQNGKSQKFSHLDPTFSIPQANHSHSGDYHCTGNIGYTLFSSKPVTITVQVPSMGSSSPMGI
# T2: recombinant His-tagged human FcγRIIa, 167-Arg [R] / R131 variant (human, UniProt P12318 34-218, limits assumed)
# T2 construct: catalogue numbers differ; also called FcγRIIa-R; FcγRIIa-R131
# T2 sequence (looked up): T1 sequence (looked up) with H134R
# T3: recombinant His-tagged human FcγRIIb (human, UniProt P31994 43-217, limits assumed)
# T3 sequence (looked up): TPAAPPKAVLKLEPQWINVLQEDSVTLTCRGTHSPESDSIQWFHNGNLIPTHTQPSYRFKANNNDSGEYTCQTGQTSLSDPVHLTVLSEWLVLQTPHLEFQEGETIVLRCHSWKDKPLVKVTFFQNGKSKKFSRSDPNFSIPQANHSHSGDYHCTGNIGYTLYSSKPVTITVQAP
# T4: rat PD-1 on transfected CHO-S cells (rat, UniProt D3ZIN8 25-287)
# T4 sequence: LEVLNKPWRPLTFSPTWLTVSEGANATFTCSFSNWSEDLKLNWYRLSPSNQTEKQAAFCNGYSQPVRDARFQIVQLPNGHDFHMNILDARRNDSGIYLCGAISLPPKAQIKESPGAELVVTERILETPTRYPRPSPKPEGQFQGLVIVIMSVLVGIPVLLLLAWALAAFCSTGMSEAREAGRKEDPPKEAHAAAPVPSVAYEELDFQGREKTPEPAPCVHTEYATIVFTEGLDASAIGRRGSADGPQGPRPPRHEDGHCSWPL
# T5: mouse PD-1 on transfected CHO-S cells (mouse, UniProt Q02242 25-288)
# T5 construct: whole, on cells
# T5 sequence (looked up): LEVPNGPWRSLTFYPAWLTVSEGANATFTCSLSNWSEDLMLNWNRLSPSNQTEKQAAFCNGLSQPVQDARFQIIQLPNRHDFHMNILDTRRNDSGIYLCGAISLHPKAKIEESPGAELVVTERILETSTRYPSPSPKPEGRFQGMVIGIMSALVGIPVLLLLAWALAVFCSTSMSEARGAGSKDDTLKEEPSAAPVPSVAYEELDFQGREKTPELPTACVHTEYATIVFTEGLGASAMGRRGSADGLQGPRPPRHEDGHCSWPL
# T6: cynomolgus monkey CD27 on the cell surface (T cells, transfected HEK293F cells) (cynomolgus monkey, UniProt P26842 20-260 (human entry))
# T6 construct: also called Cyno CD27
# T6 chain: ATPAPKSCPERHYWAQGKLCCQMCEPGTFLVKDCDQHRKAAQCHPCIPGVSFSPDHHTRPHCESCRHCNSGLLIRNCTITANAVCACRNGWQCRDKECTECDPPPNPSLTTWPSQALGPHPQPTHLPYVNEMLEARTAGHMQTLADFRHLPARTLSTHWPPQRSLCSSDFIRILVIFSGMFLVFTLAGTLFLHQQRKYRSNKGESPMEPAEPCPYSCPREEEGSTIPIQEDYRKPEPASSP
# B1: IgG1-b12, anti-HIV gp120 antibody with wild-type IgG1 Fc (antibody)
# heavy: not shown
# light: EIVLTQSPGTLSLSPGERATFSCRSSHSIRSRRVAWYQHKPGQAPRLVIHGVSNRASGISDRFSGSGSGTDFTLTITRVEPEDFALYYCQVYGASSYTFGQGTKLERKRTVAAPSVFIFPPSDEQLKSGTASVVCLLNNFYPREAKVQWKVDNALQSGNSQESVTEQDSKDSTYSLSSTLTLSKADYEKHKVYACEVTHQGLSSPVTKSFNRGEC
# notes: also called WT IgG1-b12; ctrl; copies: 2 + 2
# B2: IgG1-b12-P329R-E345R (antibody)
# VH: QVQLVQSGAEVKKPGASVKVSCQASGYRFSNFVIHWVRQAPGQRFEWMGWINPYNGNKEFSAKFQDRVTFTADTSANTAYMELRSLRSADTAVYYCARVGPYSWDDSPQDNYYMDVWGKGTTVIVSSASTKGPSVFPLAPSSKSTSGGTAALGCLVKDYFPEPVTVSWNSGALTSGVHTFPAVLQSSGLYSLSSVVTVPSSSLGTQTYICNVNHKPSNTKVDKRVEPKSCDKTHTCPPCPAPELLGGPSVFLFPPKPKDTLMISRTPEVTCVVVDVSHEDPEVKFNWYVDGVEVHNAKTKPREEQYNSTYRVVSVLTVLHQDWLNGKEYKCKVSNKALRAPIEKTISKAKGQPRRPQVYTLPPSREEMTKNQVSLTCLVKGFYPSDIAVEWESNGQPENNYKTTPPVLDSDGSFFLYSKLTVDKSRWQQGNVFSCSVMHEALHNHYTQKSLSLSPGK
# VL: B1 light
# notes: also called ctrl; IgG1-b12-E345R-P329R
# B3: IgG1-ctrl-FERR (b12 antigen-binding domains, IgG1m(f)-L234F-L235E-G236R-K409R) (antibody)
# heavy: QVQLVQSGAEVKKPGASVKVSCQASGYRFSNFVIHWVRQAPGQRFEWMGWINPYNGNKEFSAKFQDRVTFTADTSANTAYMELRSLRSADTAVYYCARVGPYSWDDSPQDNYYMDVWGKGTTVIVSSASTKGPSVFPLAPSSKSTSGGTAALGCLVKDYFPEPVTVSWNSGALTSGVHTFPAVLQSSGLYSLSSVVTVPSSSLGTQTYICNVNHKPSNTKVDKRVEPKSCDKTHTCPPCPAPEFERGPSVFLFPPKPKDTLMISRTPEVTCVVVDVSHEDPEVKFNWYVDGVEVHNAKTKPREEQYNSTYRVVSVLTVLHQDWLNGKEYKCKVSNKALPAPIEKTISKAKGQPREPQVYTLPPSREEMTKNQVSLTCLVKGFYPSDIAVEWESNGQPENNYKTTPPVLDSDGSFFLYSRLTVDKSRWQQGNVFSCSVMHEALHNHYTQKSLSLSPG
# light: B1 light
# B4: IgG1-CD27-A-P329R-E345R-LNLuc (antibody)
# heavy: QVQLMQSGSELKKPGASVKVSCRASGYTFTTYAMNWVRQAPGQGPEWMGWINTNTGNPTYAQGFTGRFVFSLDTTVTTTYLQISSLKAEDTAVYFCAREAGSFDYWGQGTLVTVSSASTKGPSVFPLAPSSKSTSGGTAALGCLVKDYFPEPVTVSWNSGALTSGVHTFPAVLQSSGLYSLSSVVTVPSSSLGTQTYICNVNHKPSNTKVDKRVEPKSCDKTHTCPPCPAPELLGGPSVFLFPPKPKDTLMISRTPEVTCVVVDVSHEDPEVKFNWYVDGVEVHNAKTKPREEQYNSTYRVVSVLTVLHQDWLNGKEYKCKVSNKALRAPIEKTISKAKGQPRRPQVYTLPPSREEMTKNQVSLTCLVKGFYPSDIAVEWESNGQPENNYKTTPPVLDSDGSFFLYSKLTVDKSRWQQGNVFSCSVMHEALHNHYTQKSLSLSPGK
# light: QSALTQPASVSGSPGQSITISCTGTSSDVYYYNYVSWYQQHPGRAPKLVIYDVSNRPSGVSNRFSGSKSGNTASLTISGLRAEDEADYYCSSYTVNRVWVFGGGTKLTVLGQPKAAPSVTLFPPSSEELQANKATLVCLISDFYPGAVTVAWKADSSPVKAGVETTTPSKQSNNKYAASSYLSLTPEQWKSHRSYSCQVTHEGSTVEKTVAPTECSSLGSSGVFTLEDFVGDWRQTAGYNLDQVLEQGGVSSLFQNLGVSVTPIQRIVLSGENGLKIDIHVIIPYEGLSGDQMGQIEKIFKVVYPVDDHHFKVILHYGTLVIDGVTPNMIDYFGRPYEGIAVFDGKKITVTGTLWNGNKIIDERLINPDGSLLFRVTINGVTGWRLCERILA
# B5: IgG1-CD27-A carrying F405L-L234F-L235E-D265A in the IgG Fc domain (antibody, V domains shown)
# VH: QVQLMQSGSELKKPGASVKVSCRASGYTFTTYAMNWVRQAPGQGPEWMGWINTNTGNPTYAQGFTGRFVFSLDTTVTTTYLQISSLKAEDTAVYFCAREAGSFDYWGQGTLVTVSS
# VL: QSALTQPASVSGSPGQSITISCTGTSSDVYYYNYVSWYQQHPGRAPKLVIYDVSNRPSGVSNRFSGSKSGNTASLTISGLRAEDEADYYCSSYTVNRVWVFGGGTKLTVL
# Tests used:
# [1] = target: recombinant His-tagged human FcγRIa (Sino Biological 10256-H08S-B) (human, UniProt P12314 16-288); assay: SPR (Biacore), His-tagged FcγR captured on anti-His chip, antibody injected, resonance units after background subtraction
# Chain of recombinant His-tagged human FcγRIa (Sino Biological 10256-H08S-B) (P12314 16-288 limits assumed, stated change not applied): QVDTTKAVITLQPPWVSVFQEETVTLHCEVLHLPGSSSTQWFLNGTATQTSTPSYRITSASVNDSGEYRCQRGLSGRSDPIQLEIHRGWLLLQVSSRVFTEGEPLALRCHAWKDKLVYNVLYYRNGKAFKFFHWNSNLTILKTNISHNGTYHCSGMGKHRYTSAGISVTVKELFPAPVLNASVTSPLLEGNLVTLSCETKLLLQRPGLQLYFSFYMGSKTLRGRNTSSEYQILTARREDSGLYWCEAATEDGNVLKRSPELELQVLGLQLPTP
# [2] = target: T1, recombinant His-tagged human FcγRIIa, …; assay: as above
# [3] = target: T2, recombinant His-tagged human FcγRIIa, …; assay: as above
# [4] = target: T3, recombinant His-tagged human FcγRIIb; assay: as above
# [5] = target: T7, recombinant His-tagged human FcγRIIIa, 176-Phe [F] / F158 variant (human, UniProt P08637 17-208); assay: as above
# T7 construct: also called FcγRIIIa-F; FcγRIIIa-F158
# T7 sequence (P08637 17-208 limits assumed, change not shown): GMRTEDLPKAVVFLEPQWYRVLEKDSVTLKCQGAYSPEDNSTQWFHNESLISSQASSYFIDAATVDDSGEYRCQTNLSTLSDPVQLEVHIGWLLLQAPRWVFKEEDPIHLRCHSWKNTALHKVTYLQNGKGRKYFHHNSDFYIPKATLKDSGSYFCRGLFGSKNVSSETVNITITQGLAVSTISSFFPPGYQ
# [6] = target: T8, recombinant His-tagged human FcγRIIIa, 176-Val [V] / V158 variant (human, UniProt P08637 17-208); assay: as above
# T8 construct: also called FcγRIIIa-V; FcγRIIIa-V158
# T8 sequence (P08637 other isoform, or with tags, fused parts or gaps mutant limits assumed): as the sequence (P08637 17-208 limits assumed, change not shown) above, with F160V counted along it
# [7] = target: T9, human CD27 on the cell surface (T cells, transfected HEK293F cells, Daudi cells, NFκB-luc2/CD27 Jurkat cells) (human, UniProt P26842 20-240); assay: flow cytometry on CD4+ T cells in human healthy donor PBMC, FITC goat anti-human IgG F(ab')2, median FITC
# T9 construct: Full length human CD27, endogenous or transfected; also called TNFRSF7
# [8] = target: T10, human FcγRIa on the cell surface (transfected CHO-S cells, M0/M1 macrophages, hMDM, FcγRI effector reporter … (human, UniProt P12314 16-374)); assay: flow cytometry on human monocyte-derived M0 macrophages, PE-labeled goat anti-human IgG, GeoMean-PE
# T10 construct: whole, on cells; also called CD64
# T10 sequence (P12314 16-374): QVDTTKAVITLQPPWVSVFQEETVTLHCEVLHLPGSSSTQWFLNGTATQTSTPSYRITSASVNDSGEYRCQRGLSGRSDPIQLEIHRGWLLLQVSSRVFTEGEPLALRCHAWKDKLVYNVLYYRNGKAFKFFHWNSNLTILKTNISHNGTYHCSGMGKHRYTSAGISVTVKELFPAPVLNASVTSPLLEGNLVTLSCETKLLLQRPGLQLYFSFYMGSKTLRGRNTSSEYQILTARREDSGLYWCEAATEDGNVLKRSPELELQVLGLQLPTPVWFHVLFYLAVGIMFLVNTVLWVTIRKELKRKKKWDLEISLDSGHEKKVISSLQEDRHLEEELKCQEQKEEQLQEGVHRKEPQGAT
# [9] = target: T10, human FcγRIa on the cell surface …; assay: flow cytometry on CHO-S cells transiently expressing human FcγRIa, % PE+ cells
# [10] = target: T4, rat PD-1 on transfected CHO-S cells; assay: flow cytometry on CHO-S cells transiently transfected with rat PD-1, gMFI (PE)
# [11] = target: T11, human PD-1 on the cell surface (transfected CHO-S cells; PD-1 effector reporter Jurkat T cells) (human, UniProt Q15116 25-288); assay: flow cytometry on CHO-S cells transiently transfected with human PD-1, gMFI (PE)
# T11 construct: also called CD279
# T11 sequence (Q15116 25-288 limits assumed): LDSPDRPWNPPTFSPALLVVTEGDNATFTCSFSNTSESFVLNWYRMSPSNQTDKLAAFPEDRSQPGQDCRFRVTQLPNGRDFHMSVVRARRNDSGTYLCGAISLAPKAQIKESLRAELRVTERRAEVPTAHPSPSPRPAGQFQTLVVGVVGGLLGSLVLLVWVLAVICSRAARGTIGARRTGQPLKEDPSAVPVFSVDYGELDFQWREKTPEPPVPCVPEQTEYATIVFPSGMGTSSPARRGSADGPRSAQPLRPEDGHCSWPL
# [12] = target: T5, mouse PD-1 on transfected CHO-S cells; assay: flow cytometry on CHO-S cells transiently transfected with mouse PD-1, gMFI (PE)
# [13] = target: cynomolgus monkey PD-1 on transfected CHO-S cells (cynomolgus monkey, UniProt B0LAJ3 25-288); assay: flow cytometry on CHO-S cells transiently transfected with cynomolgus monkey PD-1, gMFI (PE)
# Chain of cynomolgus monkey PD-1 on transfected CHO-S cells (B0LAJ3 entry or part of it limits assumed): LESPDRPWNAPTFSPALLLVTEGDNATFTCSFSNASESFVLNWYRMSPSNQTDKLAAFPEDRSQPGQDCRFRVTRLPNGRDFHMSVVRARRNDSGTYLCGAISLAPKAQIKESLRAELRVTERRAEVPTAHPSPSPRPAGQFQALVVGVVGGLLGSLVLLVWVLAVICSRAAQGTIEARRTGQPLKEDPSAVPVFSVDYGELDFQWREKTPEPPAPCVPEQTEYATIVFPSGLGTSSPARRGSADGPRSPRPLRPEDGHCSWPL
# [14] = target: T12, IgG1-CD27-A-P329R-E345R-LHalo (HaloTag NanoBret 618 ligand bound to the HaloTag); assay: NanoBRET proximity assay between NanoLuc- and HaloTag-tagged antibodies (5 µg/mL each) bound on cells, corrected BRET (mBU)
# T12 construct: Light chain fused to HaloTag; heavy chain as for m63
# T12 sequence (heavy, as listed by the source): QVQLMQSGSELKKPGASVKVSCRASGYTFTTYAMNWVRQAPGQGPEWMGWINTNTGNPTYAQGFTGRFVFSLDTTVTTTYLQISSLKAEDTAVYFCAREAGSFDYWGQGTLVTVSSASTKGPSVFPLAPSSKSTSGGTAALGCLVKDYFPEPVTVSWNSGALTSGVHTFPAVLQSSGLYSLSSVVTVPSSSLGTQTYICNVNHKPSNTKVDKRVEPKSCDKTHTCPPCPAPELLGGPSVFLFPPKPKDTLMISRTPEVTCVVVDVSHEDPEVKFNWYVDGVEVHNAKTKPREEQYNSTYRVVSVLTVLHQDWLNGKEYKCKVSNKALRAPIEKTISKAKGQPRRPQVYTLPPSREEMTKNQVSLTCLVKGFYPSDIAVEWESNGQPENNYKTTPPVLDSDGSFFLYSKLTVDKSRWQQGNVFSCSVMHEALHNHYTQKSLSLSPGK
# [15] = target: T9, human CD27 on the cell surface (T …); assay: flow cytometry on T cells in human PBMC (endogenous CD27), PE-labeled goat anti-human IgG, median MFI PE
# [16] = target: T9, human CD27 on the cell surface (T …); assay: flow cytometry on HEK293F cells transfected with human CD27, PE-labeled goat anti-human IgG, median MFI PE
# [17] = target: human CD27-A59T variant on transfected HEK293F cells (human, UniProt P26842 20-260); assay: flow cytometry on HEK293F cells transfected with human CD27-A59T, PE-labeled goat anti-human IgG, median MFI PE
# [18] = target: T6, cynomolgus monkey CD27 on the cell …; assay: flow cytometry on T cells in cynomolgus monkey PBMC (endogenous CD27), PE-labeled goat anti-human IgG, median MFI PE
# [19] = target: T6, cynomolgus monkey CD27 on the cell …; assay: flow cytometry on HEK293F cells transfected with cynomolgus monkey CD27, PE-labeled goat anti-human IgG, median MFI PE
binder,measurement,setting,value
B1,EC50 (read off the curve),[1],~0.06 µM
same,binding result,[2],binds
same,binding result,[3],binds
same,binding result,[4],binds
same,binding result,[5],binds
same,binding result,[6],binds
B2,binding result,[7],no binding (tested: 10 µg/ml)
same,binding result,[8],no binding (tested: 30 µg/mL)
B3,binding result,[9],no binding (tested: 10 µg/mL)
same,binding result,[10],no binding (tested: 10 µg/mL)
same,binding result,[11],no binding (tested: 10 µg/mL)
same,binding result,[12],no binding (tested: 10 µg/mL)
same,binding result,[13],no binding (tested: 10 µg/mL)
B4,binding result,[14],binds
B5,EC50 (read off the curve),[15],~0.04 mg/L
same,EC50 (read off the curve),[16],~0.1 mg/L
same,EC50 (read off the curve),[17],~0.2 mg/L
same,EC50 (read off the curve),[18],~0.03 mg/L
same,EC50 (read off the curve),[19],~0.06 mg/L
